The record followed here is article PMC4409310, “Substrate Recognition and Modification by the Nosiheptide Resistance Methyltransferase”.

One series has as its target His-NHR (Streptomyces actuosus, UniProt P52391 1-274). The series is described as follows: fluorescence anisotropy; 5 mM Mg2+; Anisotropy: 25 mM HEPES-KOH pH 7.5, 25 mM NH4Cl, 5 mM MgCl2, 5 mM DTT, 2.5 uM RNA, 0-8 uM NHR, temperature not stated; EMSA: 25 mM HEPES-KOH pH 8.0, 25 mM NH4Cl, 5 mM MgCl2, 5 mM DTT, 4 C, 1 h, 6-10 uM RNA. Conditions: protein: recombinant, tags: N-terminal His6 (pET-28a), chain copies: 2. In general terms: Polarisation of emitted light reports the rotation of a fluorescent probe.

Series [1] deals with HA-His-NHR-R135A (His-NHR-M) (Streptomyces actuosus, UniProt P52391 1-274, R135A). The series is described as follows: EMSA; 5 mM Mg2+; R135A homodimer, less efficient than heterodimer; Anisotropy: 25 mM HEPES-KOH pH 7.5, 25 mM NH4Cl, 5 mM MgCl2, 5 mM DTT, 2.5 uM RNA, 0-8 uM NHR, temperature not stated; EMSA: 25 mM HEPES-KOH pH 8.0, 25 mM NH4Cl, 5 mM MgCl2, 5 mM DTT, 4 C, 1 h, 6-10 uM RNA. As to conditions: protein: recombinant; tags: HA, N-terminal His6; chain copies: 2; label: 3' fluorescein (anisotropy); none (EMSA, SYBR Gold); hairpin. On the technique in general: Mobility shift assays separate free from complexed probe on a gel.

Series [2] addresses HA-His-NHR-R135A subunit of heterodimer;Flag-Trx-NHR subunit of heterodimer (Streptomyces actuosus;Streptomyces …, UniProt P52391;P52391 1-274;1-274, R135A|). The series is described as follows: EMSA; 5 mM Mg2+; WT/R135A heterodimer, more efficient than R135A homodimer; Anisotropy: 25 mM HEPES-KOH pH 7.5, 25 mM NH4Cl, 5 mM MgCl2, 5 mM DTT, 2.5 uM RNA, 0-8 uM NHR, temperature not stated; EMSA: 25 mM HEPES-KOH pH 8.0, 25 mM NH4Cl, 5 mM MgCl2, 5 mM DTT, 4 C, 1 h, 6-10 uM RNA. As to conditions: protein: recombinant;recombinant, tags: HA, N-terminal His6;Flag, thioredoxin, copies: 1;1, label: 3' fluorescein (anisotropy), none (EMSA, SYBR Gold), hairpin.

Setting [3] is: label: 3' fluorescein, folded single strand.

Regarding GGAUGUUGGCUUUGAAGCAGCCAUCAUUU (structured_RNA) [29 nt RNA A1067U], the dissociation constant Kd (in general, the free concentration of one partner at which half of the binding sites on the other are occupied at equilibrium, for simple one-to-one binding) with His-NHR (label: 3' fluorescein, hairpin) came to 0.63 ± 0.08 µM. Turning to GGAUGUUGGCUUGGAAGCAGCCAUCAUUU (structured_RNA) [29 nt RNA A1067G], the Kd in the series with His-NHR (label: 3' fluorescein, hairpin) was determined as 0.37 ± 0.03 µM.

B1: 58 nt RNA A1067G (structured_RNA)
RNA: GGCCAGGAUGUUGGCUUGGAAGCAGCCAUCAUUUAAAGAAAGCGUAAUAGCUCACUGGCU
For B1, the Kd in the series with His-NHR (setting [3]) is 0.77 ± 0.02 µM.

B2: 58 nt RNA A1067C (structured_RNA)
RNA: GGCCAGGAUGUUGGCUUCGAAGCAGCCAUCAUUUAAAGAAAGCGUAAUAGCUCACUGGCU
Take B2: the Kd with His-NHR (setting [3]) amounted to 0.8 ± 0.02 µM.

B3: 58 nt RNA A1067U (structured_RNA)
RNA: GGCCAGGAUGUUGGCUUUGAAGCAGCCAUCAUUUAAAGAAAGCGUAAUAGCUCACUGGCU
B3: the equilibrium dissociation constant (Kd) with His-NHR (setting [3]) turned out to be 0.91 ± 0.02 µM.

Regarding GGAUGUUGGCUUAGAAGCAGCCAUCAUUU (structured_RNA) [29 nt RNA wt A1067], the binding result in series [1] and in series [2] was “binds” each time. Besides, in the series with His-NHR (label: 3' fluorescein (anisotropy), none (EMSA, SYBR Gold), hairpin), the Kd is 0.37 ± 0.03 µM.

As for GGAUGUUGGCUUCGAAGCAGCCAUCAUUU (structured_RNA) [29 nt RNA A1067C], the dissociation constant (Kd) in the series with His-NHR (label: 3' fluorescein, hairpin) came to 0.46 ± 0.04 µM.
